Assay results: the supplement of paper PMC9170038

Test system: K4 kissing-loop RNA reporter
Test: apparent KD of K4 kissing-loop reporter; higher = weaker reporter binding
Settings: Eterna round: R107
Procedure: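 RNA-MaP round R107: designed RNA switches with theophylline, tryptophan, arginine or FMN aptamers are transcribed on-chip within common flanks. They are titrated with a labelled K4 kissing-loop RNA reporter in RNA-MaP buffer (100 mM Tris pH 7.5, 80 mM KCl, 4 mM MgCl2), without ligand or with the indicated ligand. Median apparent KD per design.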

[1] = input ligand: theophylline 20 uM
[2] = input ligand: tryptophan 2.4 mM
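Further: bound reporter read as fluorescence of individual clusters on recovered sequencing chips by microscopy, with normalized cluster intensities fitted with a binding model.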

Row | Sequence | apparent KD of K4 kissing-loop reporter (input ligand: FMN 200 uM) [nM] | apparent KD of K4 kissing-loop reporter (input ligand: arginine 13.2 mM) [nM] | apparent KD of K4 kissing-loop reporter (input ligand: none) [nM] | apparent KD of K4 kissing-loop reporter [1] [nM] | apparent KD of K4 kissing-loop reporter [2] [nM]
1 | UUGCGUCUCUGAGGAUAUCAGAACAGAGUGAUGUUCUGUCAACGCCCAGUGAUGUUGGAUGCGAUCUGAGAAGGCAGUGGGCGCG [Same State FMN B GF 10] | 202 | 188 | 219 | 177 | 184
2 | CAUACGCAUGGAGGAUAUGAGAAUUCUCAUGUCAUUUAAUAUUCUCAGUGAUGUUGAGGAUGUGGCUCAGAAGGCCAUGUGUAUG [Ex FMN B 21] | 205 | 325 | 423 | 366 | 379
3 | AAAUUUAUAUUAGAUACCAGUUUAAUGGAUGUAAAUUAUGACAUGAGUGAUGUUCAUGUAAGCCCUUGGCAGCUGGUAUGGGUUU [KL-XTheo-B21] | 127 | 110 | 121 | 116 | 115
4 | UAAGAAUAAGAUGCAGUGAUGUUGCAUCUACGAGGACCGGUACGGCCGCCACUCGAGGUCCUCGAACUGCAUCAGAGGACAAUAA [(H,1)-(H,2)-(Trp1)-(Trp2)-(T)'-(H)'-(T)''] | 253 | 184 | 286 | 390 | 300
5 | GUAUAUCGAACUGAUACCAGAGAAUAAAGCAGUGAUGUUGCAUAUAUAAAUAAGACUCGACUCCCUUGGCAGCGGGAAGAUAUAC [On purpose 1] | 170 | 231 | 197 | 280 | 146
6 | GCUAUGGUAGGAAGGAGCGCUUACUCAUUAAUAAGAGUGAUGUUCGAUAAUGAGUAUUUAUAGCAGGUAGGUCGCCUACUAUAGC [Arginine B K4 3] | 280 | 221 | 270 | 247 | 237
7 | ACGUCCGGGUUAAUCGUGGGCGUGGUGGAUACCAGUUCUUCAAUGAACCCUUGGCAGCCACGUGAGUGAUGUUCACGUGCGAUGA [#15 K4 Theophylline A Exclusion] | 98.7 | 83.3 | 89.5 | 88.7 | 88.6
8 | GUACGCUCUCGAGUGAUGUUCGGUAAUAGUUAGGAUAUCGCUUUUGCGAGAAGGAACUGAAUGAGGAAACUCGUUCUGAGUGUAC [FMN A 18] | 618 | 183 | 342 | 398 | 239
9 | GGGUCUGCCGGAAGGAGCGCACUAUGGAGUGAUGUUCCAUGACCGCACAGCUUGCGGUCAGUGCAGGUAGGUCGCCGGUAGCGUU [Inesor] | 163 | 154 | 175 | 177 | 162
10 | GGAAGGAAGGAAACCAACCAACCAACCGAUACCAGCGGAAGAGAACGCCCUUGGCAGCGGAGAAAGCCAGUGAUGUUGGAAAGAA | 324 | 224 | 402 | 300 | 318
11 | AAUGCAUAGUGAAGGAGCGCGAUUUGCAGUGAUGUUGCAAAUUUAAACAAUCUUAUCUUUUCGCAGGUAGGUCGCACUAUGCAUA [JR_Nu_SSArginiB_Sub021] | 94.1 | 90.3 | 88.2 | 80.9 | 88.7
12 | GGAGUUACCUGGGAUACCAGUCGGAGGCCCAGAGCUCGGAGUGAUGUUCUGGGAUGUUUCGGCCCUUGGCAGCUCUGGGUCUCCC [#2 Exclusion - Theophylline B Attempt #7 (HarryS)] | 1690 | 563 | 1040 | 895 | 718
13 | UGUCAUUGGUCGGCCGCCACUUCAUAAAAGAGUGAUGUUCUAAAGACGGAUCGAAAGAUCUGUCGAAGGACCGGGACCGAUGACU [TrypBS 19 #SwitchBubble #StaticStem] | 508 | 168 | 209 | 419 | 753
14 | UAUUAAUUGUCAGGAUAUCGUAAUCGAGUGAUGUUCGAAUAUCGACGAUAGUCGAUAUUAUUUAUACGAGAAGGGACAUUAUUUA [JR_SSFMNB_Sub004] | 366 | 298 | 417 | 321 | 332
15 | GGGUCUGUCGGAAGGAGCGCGCUAUGGAGUGAUGUUCCAUGACCGUACAGCUUACGGUCAGCGCAGGUAGGUCGCCGAUAGCGUU [Geordiar] | 153 | 116 | 142 | 151 | 120
16 | CACCCUAGUUCAGAUACCAGACUAGAGACAGUGAUGUUGUCACAUCCUAAAUUGGGUGUAGUCCCUUGGCAGCUGAGUAAUCUGC [Theo B/Ex/SS double] | 600 | 635 | 724 | 596 | 540
17 | AAGCAGUCACUCGAAGCCAUCGAAGAUGGGCGAGGACCGGUACGGCCGCCACUCGGAGUGAUGUUCCGAGGACUGCAAAAUAAAA [MatMod 4 - Jieux - Exclusion - Tryptophan A] | 507 | 365 | 350 | 299 | 311
18 | CAGCAUCAGGUUCAAACUGCAUGUACUGAUACCAGUCUUAAGAUCGACCCUUGGCAGCAGCUCCCGAGUGAUGUUCGUAGCGAGC [theeternabot_exclusion_KL_Theo_A_41] | 362 | 339 | 356 | 401 | 336
19 | ACAAUGAUCAAAGGAUAUCGUAAGUUAUACAUCACGCGAUGAUUCAGAGGCGAGUGAUGUUUGUCUCGAGAAGGUUGGUACCGUC [theeternabot_exclusion_KL_FMN_B_37] | 366 | 539 | 521 | 599 | 568
20 | CGCCGCAAGGCGAGCGCUCCCACUCCGGAAGGAGCGCCCGGAAGGGCAGGUAGGUCGCCGGAGUGAUGUUCCGGUGGAGGGCUCG [#2 Exclusion - Arginine A Attempt #13 (Inspired by Omei)] | 358 | 248 | 334 | 491 | 416
21 | ACGUCACGUAUACUGGUGGUUUCGAUCGAUACCAGUAGCGAGAGUUACCCUUGGCAGCGACAUGAGUGAUGUUCAUGUAUGAAGA [KL-XTheo-A1 #analogue] | 100 | 111 | 102 | 113 | 95.7

Row | Sequence | apparent KD of K4 kissing-loop reporter (input ligand: FMN 200 uM) [nM] | apparent KD of K4 kissing-loop reporter (input ligand: arginine 13.2 mM) [nM] | apparent KD of K4 kissing-loop reporter (input ligand: none) [nM] | apparent KD of K4 kissing-loop reporter [1] [nM] | apparent KD of K4 kissing-loop reporter [2] [nM]
22 | UGACAUUGCUCAGAUACCAGACCUGAGGAACACCCAGGUGCCAAAACGUACUAAAUAAAGGUCCCUUGGCAGCUGAGCAAUGUCU [TheoBX 13] | 45.7 | 35.1 | 35.4 | 77.6 | 59.7
23 | GGCGGCUGCGCGGAAGCGCAGCCGGCCGAUACCAGCGCGACGGCGCGCCCUUGGCAGCGGCGCCGAGUGAUGUUCGGCCUGCCGU [#2 Same State - Theophylline A Attempt #21 (HarryS)] | 122 | 82.2 | 95.3 | 124 | 117
24 | AAGGUUUAGCACGAUACCAGCCUGGAGGCCAGUGAUGUUGGCCGAUUUGAACAGAAUUAAGGCCCUUGGCAGCGUCUCUAAAACC [Dierra] | 191 | 180 | 192 | 144 | 176
25 | AUUUAAUGUAUAGAUUAUAUACAUUAUUCAGAGGAUAUGCAUUGAAGCAGAAGGCUGGGUGUAGUGAUGUUGCAGUUUUAAUUUA [whbob_SS_FMNA__2th173] | 150 | 254 | 152 | 224 | 122
26 | AAGUAGCUCUCGGCCGCCACUCCUCAGUGAUGUUGAGAUUUUUUCUGCCAAUUGGCGUUUUUUUAGAGGACCGGGAGAGCUACAA [AK1 SS Tryptophan B] | 332 | 365 | 339 | 291 | 124
27 | AAUGUACAGGGAAGGAGCGUAGUCCAGUGAUGUUGGAGUUAAAUACCAGUGAUGUUGGUUAUACAGGUAGGUCGCCCUAAAGUGC [Exclusion Arginine B Gf 4] | 87 | 65.3 | 80.9 | 84.3 | 76
28 | AAGCAGUCAGGAUCGAAGAUCCUGCAAUACCGAGGACCGGUACGGCCGCCACUCGGAGUGAUGUUCCGAAGACUGCAAAAUAAAA [#SwitchBubble 7] | 436 | 255 | 243 | 57.9 | 152
29 | GCGCUUAAAUAAGGAUAUUACAGACUCAUCUACGAGUGAUGUUCGGUGCGCUGUGCACAGAGCCUGUAAGAAGGUAUAGCAUUGC [theeternabot_sameState_KL_FMN_B_41] | 1010 | 716 | 1180 | 811 | 861
30 | GACAAUUCCGCUUCCGAGCAUACUUGACUGAAGGAUAUCAUCGUGUUGAGAAGGUCAGUAACAGAGAGUGAUGUUCUUUGAGGUC [theeternabot_sameState_KL_FMN_A_19] | 242 | 168 | 234 | 207 | 151
31 | UAAGAAUAGCAUGCAGUGAUGUUGCAUGUCCGAGGACCGGUACGGCCGCCACUCGAGUCCUCGAACAUGCACCGAGGAAUAACAA [#19 K4 Tryptophan A Same State] | 108 | 79.6 | 109 | 107 | 124
32 | UGUGUUUACCUGACUCAGUGAUGUUGAGAAGGAGCGUGCGAAAGCACAGGUAGGUCGCUCAACCUAAAAUUCAGGUGAGCACUAA [#SwitchBubble 11 #K4Early] | 366 | 202 | 267 | 263 | 213
33 | CAGAACUUGUAUAUAGGGUAUAUAAGAGAUACCAGUCAAAUUAAAGACCCUUGGCAGCUCAGGCGAGUGAUGUUCGCAGGCUAAC [Exclusion Theophylline A GF 17] | 112 | 111 | 113 | 133 | 91.1
34 | UGACUACAUAAGGAUUAAUCCUAGUGAUGUUAGGAUAUGCUGAUAAGCAGAAGGAACGGAGAUCGAAGGAUCUCAUAUGUAGUCU [whbob_Ex_FMNA__2th195] | 457 | 135 | 164 | 138 | 164
35 | CGGGAUGUUAAAGGAUAUAGCAGGUGAUACAAGAAAGUGAGUGAUGUUUAUGUAGAUGAUGAUAUGUUAGAAGGUUAACAAAACG [abcdefghijkl] | 1040 | 726 | 908 | 686 | 581
36 | UAGUGUCGCGCAGGAUAUACUGAUUGGAGUGAUGUUCCAAACAUGCACGUGUGACUUUUACAAGAAGUAGAAGGGCGUGAGACAU [Exclusion FMN B GF 22] | 303 | 200 | 184 | 198 | 179
37 | CAAAUAAAUAUAAUUGAUAAGUGAUGUUGGCGAGGACCGGUACGGCCGCCACUCGAUAUCGGUCCAUUAACCGAGUGAUGUUUGG [Default title] | 102 | 58.9 | 81.1 | 67.4 | 83.7
38 | AAGUUAUGAUCUGAUACCAGACUUUAUCUUGUUUAUAAGUCAAGUGAUGUUUGACUAUUAGUCCCUUGGCAGCAGUAUUGUUUAA [#18 K4 Theophylline B Same State] | 263 | 268 | 302 | 228 | 255
39 | CCAGAAUGAUGAGGAUGAUAAAUUACUGAAGGAGCGCAUAUAGUUGCAGGUAGGUCGCGGUGAAUAAGUAUAGUGAUGUUAUACC [SSArgA.Ab] | 595 | 327 | 314 | 322 | 341
40 | UGAUUGGCGAAAGUAGUGAUGUUACGAAUAUAGGAUAUUAGAGGAAUAAGAAGGAUAAAGGAGAAAUAGGUAAAUUGUUGGUUGG [whbob_SS_FMNA__2th169] | 110 | 59.8 | 104 | 128 | 93.4
41 | GUAUCGCUAGGAGGAUAUUUCAAUUUGACUCUUUGAGUUAAUACGGAGUGAUGUUCCGUUUUACGGAAAGAAGGCCUAGUGAUAC [FMN B 14] | 115 | 150 | 192 | 172 | 166
42 | AACCUACGAUCACAAUAGUGAUUGUAGGACUAGGAUAUGCUGAAAAGCAGAAGGAGUGAUGUUCCGUCAUGAAUAACAUGACAAA [FmnAX 3 #OpenEnded #K4Late #CoaxialStacking] | 610 | 465 | 455 | 497 | 357
